Assay results published in article PMC3795964 (Journal of molecular biology, 2013).
Each block holds one binder with its values, some of them ahead of it.

Target: 6XHIS-tagged Dbp2 (S. cerevisiae, UniProt P24783 1-546)
Test: pull-down

Chain of 6XHIS-tagged Dbp2 (P24783 whole entry): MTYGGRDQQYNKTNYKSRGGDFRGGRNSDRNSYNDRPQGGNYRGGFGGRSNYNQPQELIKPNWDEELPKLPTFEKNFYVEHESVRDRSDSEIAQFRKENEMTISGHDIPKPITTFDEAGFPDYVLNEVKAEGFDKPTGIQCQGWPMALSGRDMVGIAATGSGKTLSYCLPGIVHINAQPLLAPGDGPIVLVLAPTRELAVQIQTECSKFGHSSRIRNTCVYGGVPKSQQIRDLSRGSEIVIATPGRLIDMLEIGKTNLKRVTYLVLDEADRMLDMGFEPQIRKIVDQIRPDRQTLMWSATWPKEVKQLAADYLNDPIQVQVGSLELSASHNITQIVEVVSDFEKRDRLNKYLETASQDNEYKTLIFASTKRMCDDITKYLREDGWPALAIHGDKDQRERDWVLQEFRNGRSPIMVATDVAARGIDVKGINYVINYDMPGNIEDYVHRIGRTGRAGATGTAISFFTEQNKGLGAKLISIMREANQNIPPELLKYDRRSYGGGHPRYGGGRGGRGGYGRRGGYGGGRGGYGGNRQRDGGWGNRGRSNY

binding result: binds
B1: GST-Yra1 C (domain or fragment, S. cerevisiae, UniProt Q12159 124-226, looked up)
chain: ITFKNGELARRAVERFNGSPIDGGRSRLRLNLIVDPNQRPVKSLADRIKAMPQKGGNAPRPVKRGPNRKAAMAKSQNKPKREKPAKKSLEDLDKEMADYFEKK

binding result: binds
B2: GST-tagged Yra1 (full length) (natural protein, S. cerevisiae, UniProt Q12159 1-226, looked up)
chain: MSANLDKSLDEIIGSNKAGSNRARVGGTRGNGPRRVGKQVGSQRRSLPNRRGPIRKNTRAPPNAVARVAKLLDTTREVKVNVEGLPRDIKQDAVREFFASQVGGVQRVLLSYNERGQSTGMANITFKNGELARRAVERFNGSPIDGGRSRLRLNLIVDPNQRPVKSLADRIKAMPQKGGNAPRPVKRGPNRKAAMAKSQNKPKREKPAKKSLEDLDKEMADYFEKK
